Test results published in publication PMC5025763, “Bach2–Batf interactions control Th2-type immune response by regulating the IL-4 amplification loop” (Nature Communications, 2016).

Target: T1, Flag-tagged Bach2 protein (mouse, UniProt P97303 1-839)
T1 construct: Bach2, mouse (murine Bach2 cDNA is named in the methods of the luciferase assay); The species is stated only for the cDNA cloned into pCMV-Myc; also called WT Bach2 protein; BTB and CNC homology 1, basic leucine zipper transcription factor 2; source: cell-free protein synthesis
Test: AlphaScreen or HTRF; Flag-tagged Bach2 mixed with biotinylated transcription factors, 26 °C for 1 h; then protein A-conjugated acceptor beads, streptavidin-coated donor beads and anti-Flag M2 antibody, 26 °C for 1 h; proteins from cell-free synthesis; intensities relative to DHFR
Conditions: partners not purified

T1 sequence (P97303 whole entry): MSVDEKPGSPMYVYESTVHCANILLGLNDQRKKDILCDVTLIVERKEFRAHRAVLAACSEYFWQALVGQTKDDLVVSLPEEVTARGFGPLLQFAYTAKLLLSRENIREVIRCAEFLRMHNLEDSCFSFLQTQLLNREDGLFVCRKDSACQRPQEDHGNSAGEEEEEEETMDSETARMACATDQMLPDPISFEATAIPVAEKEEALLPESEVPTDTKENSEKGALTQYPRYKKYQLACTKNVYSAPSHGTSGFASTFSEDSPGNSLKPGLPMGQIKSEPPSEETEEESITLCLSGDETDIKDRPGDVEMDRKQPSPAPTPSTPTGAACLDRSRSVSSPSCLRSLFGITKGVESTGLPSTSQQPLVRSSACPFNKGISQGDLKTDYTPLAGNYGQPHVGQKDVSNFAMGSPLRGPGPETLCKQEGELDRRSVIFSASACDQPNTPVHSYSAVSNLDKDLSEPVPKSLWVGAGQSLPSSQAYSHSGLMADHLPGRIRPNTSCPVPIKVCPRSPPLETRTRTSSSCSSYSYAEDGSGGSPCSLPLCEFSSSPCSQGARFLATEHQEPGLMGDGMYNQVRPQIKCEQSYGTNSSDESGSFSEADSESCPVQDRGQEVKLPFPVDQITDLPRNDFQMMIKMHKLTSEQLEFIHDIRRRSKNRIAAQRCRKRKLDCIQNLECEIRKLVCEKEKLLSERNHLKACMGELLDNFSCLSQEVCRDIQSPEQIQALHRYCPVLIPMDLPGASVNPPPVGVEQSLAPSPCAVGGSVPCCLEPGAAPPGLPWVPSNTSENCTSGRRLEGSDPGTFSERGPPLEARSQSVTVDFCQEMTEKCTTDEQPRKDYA

B1: MafK (natural protein)
chain: not shown
notes: MafK (small Maf protein); Named only in the discussion as measured in the authors' AlphaScreen system
For B1, the “fold binding strength against the Batf–Bach2 interaction” value was roughly 20 fold.
